Measured values as given in patent US20250066487A1 (ABL BIO, published 2025).

Experiments:
[1] = molecular target: T1, human 4-1BB-Fc protein (Sino Biological) (human, UniProt Q07011 24-186); test: ELISA, plate coated with human 4-1BB-Fc, detection with anti-human IgG-HRP
T1 construct: Bought protein; not shown: Fc part of the bought fusion protein

[2] = molecular target: T2, human 4-1BB expressed on GloResponse NFκB-luc2/4-1BB Jurkat cells (Promega) (human, UniProt Q07011 24-255); test: cell-based or functional assay
T2 sequence (Q07011 24-255 limits assumed): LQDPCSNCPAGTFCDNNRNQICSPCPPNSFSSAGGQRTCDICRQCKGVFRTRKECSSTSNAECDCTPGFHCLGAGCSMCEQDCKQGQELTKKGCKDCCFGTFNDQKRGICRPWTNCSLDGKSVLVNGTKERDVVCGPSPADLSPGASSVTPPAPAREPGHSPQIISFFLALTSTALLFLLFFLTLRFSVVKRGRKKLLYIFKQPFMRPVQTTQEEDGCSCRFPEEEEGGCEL

[3] = molecular target: T2, human 4-1BB expressed on GloResponse …; test: cell-based or functional assay; remark: listed apart in the source

T1 sequence (Q07011 24-186 limits assumed): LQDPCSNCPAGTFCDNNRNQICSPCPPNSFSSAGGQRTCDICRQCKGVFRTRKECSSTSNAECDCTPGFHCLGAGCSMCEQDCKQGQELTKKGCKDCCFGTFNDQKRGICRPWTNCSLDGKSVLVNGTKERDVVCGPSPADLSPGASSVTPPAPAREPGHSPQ

Binder	EC50 [1] [nM]	EC50, FcγRIIb-independent 4-1BB bioassay [2] [nM]	Fold of induction (RLU), FcγRIIb-independent 4-1BB bioassay [2]	EC50, FcγRIIb-dependent 4-1BB bioassay [3] [nM]	Fold of induction (RLU), FcγRIIb-dependent 4-1BB bioassay [3]
AB41 (antibody, human IgG4 S228P, kappa, V domains shown, Full-length IgG form; also called anti-4-1BB antibody AB41 (full-length IgG form)) VH: QVQLQQSGAEVIKPGASVKLSCKASGYTFSSYWMHWVRQAPGQGLEWIGEINPGNGHTNYNEKFKSRATLTGDTSTSTVYMELSSLRSEDTAVYYCARSFTTARAFAYWGQGTLVTVSS VL: DIVMTQSPAFLSVTPGEKVTITCRASQTISDYLHWYQQKPDQAPKLLIKYASQSISGIPSRFSGSGSGTDFTFTISSLEAEDAATYYCQDGHSFPPTFGQGTKLEIKR	0.2	–	–	–	–
1A12 (antibody, human IgG4 S228P, lambda, V domains shown, Full-length IgG form; also called 1Al2; anti-4-1BB antibody 1A12 (full-length IgG form)) VH: EVQLLESGGGLVQPGGSLRLSCAASGFTFSGYDMSWVRQAPGKGLEWVSVIYPDDGNTYYADSVKGRFTISRDNSKNTLYLQMNSLRAEDAAVYYCAKHGGQKPTTKSSSAYGMDGWGQGTLVTVSS VL: QSVLTQPPSASGTPGRRVTISCSGSSSNIGNNYVTWYQQLPGTAPKLLIYADSHRPSGVPDRFSGSKSGTSASLAISGLRSEDEADYYCATWDYSLSGYVFGGGTKLTVLG	0.18	–	–	–	–
Urelumab (antibody, V domains shown) VH: QVQLQQWGAGLLKPSETLSLTCAVYGGSFSGYYWSWIRQSPEKGLEWIGEINHGGYVTYNPSLESRVTISVDTSKNQFSLKLSSVTAADTAVYYCARDYGPGNYDWYFDLWGRGTLVTVSS VL: EIVLTQSPATLSLSPGERATLSCRASQSVSSYLAWYQQKPGQAPRLLIYDASNRATGIPARFSGSGSGTDFTLTISSLEPEDFAVYYCQQRSNWPPALTFGGGTKVEIK	–	0.537	14.1 fold (RLU)	0.239	190 fold (RLU)
